Consider 2 sequences from patent publication US5849890.

This series addresses human chorionic gonadotropin (hCG) heterodimer (Homo sapiens) (UniProt P01215+P0DN86). Kind of series: filter. The following applies: 2'-F all pyrimidines (RNA transcript of template).

human chorionic gonadotropin (hCG) heterodimer (Homo sapiens), sequence (P01215 25-116, chain 1 of 2, other chains not shown): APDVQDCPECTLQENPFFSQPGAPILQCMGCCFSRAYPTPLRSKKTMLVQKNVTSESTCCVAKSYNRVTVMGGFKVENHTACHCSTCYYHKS

In the case of “GGGAGGACGAUGCGGNNNNNNNNNNNNNUUGAACGAUCCUUNNNNNNNNNNNNNCAGACGACUCGCCCGA [CG2N7 unselected pool]”, the binding (up to 40 uM hCG) was less than 1 % bound.
Consider “GGGAGACAAGAAUAAACGCUCAANNNNNNNNNNNNNNNNNNNNNNNNNNNNNNNNNNNNNNNNUUCGACAGGAGGCUCACAACAGGC [2'-F random 40N8 pool]”, for which the Kd (commonly a measure of binding affinity in units of concentration) (estimate, <1% bound at up to 80 uM) was more than 800 µM.
